In PMC3137711 (Molecular imaging and biology : MIB : the official …, 2011):

Legend:
[1] = MicroPET imaging; format: in vivo, mouse; conditions: female, athymic nude, mouse, in vivo, 100 uCi, total radioactivity
[2] = tested on: MDA-MB-435 tumor-bearing mice; assay: MicroPET imaging; format: in vivo, mouse; conditions: co-injection with 300 µg unlabeled c(RGDfk) per mouse

CC(=O)N(O)CCCCCNC(=O)CCC(=O)N(O)CCCCCNC(=O)CCC(=O)N(O)CCCCCNC(=S)Nc1ccc(NC(=S)NCCOCCOCCOCCOCCC(=O)N[C@@H](CCC(=O)NCCOCCOCCOCCOCCC(=O)NCCCC[C@@H]2NC(=O)[C@@H](Cc3ccccc3)NC(=O)[C@H](CC(=O)O)NC(=O)CNC(=O)[C@H](CCCNC(=N)N)NC2=O)C(=O)NCCOCCOCCOCCOCCC(=O)NCCCC[C@@H]2NC(=O)[C@@H](Cc3ccccc3)NC(=O)[C@H](CC(=O)O)NC(=O)CNC(=O)[C@H](CCCNC(=N)N)NC2=O)cc1 [^89Zr-Df-[FK]2-3PEG4, metal not drawn] gave a tissue to tissue ratio at 0.5 h [1] of 12.6 ± 1.07, a tissue to tissue ratio at 1 h [1] of 16.2 ± 3.23 and a tissue to tissue ratio at 2 h [1] of 18.2 ± 2.52. The tissue to tissue ratio at 4 h [1] was 19.7 ± 3.99, the tissue to tissue ratio at 24 h [1] was 10.8 ± 1.31 and the tissue uptake at 0.5 h ([1]; SD) was 3.98 ± 0.5 %ID/g. It also gave a tissue uptake at 2 h ([1]; SD) of 4.72 ± 0.66 %ID/g, a tissue uptake at 4 h ([1]; SD) of 4.47 ± 0.81 %ID/g and a tissue uptake at 24 h ([1]; SD) of 2.2 ± 0.26 %ID/g. The “decrease of tumor uptake (PET) by blocking” value [2] was “approximately 90%”.
